Target: T1, 2-trans-octenoyl-ACP, P0A6A8
T1 chain: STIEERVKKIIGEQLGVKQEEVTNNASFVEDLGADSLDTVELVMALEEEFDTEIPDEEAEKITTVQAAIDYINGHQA

B1: Rv0636 protein of M. tuberculosis H37Rv fused with the N-terminal polyhistidine tag (protein)
chain: HHHHHHMALREFSSVKVGDQLPEKTYPLTRQDLVNYAGVSGDLNPIHWDDEIAKVVGLDTAIAHGMLTMGIGGGYVTSWVGDPGAVTEYNVRFTAVVPVPNDGKGAELVFNGRVKSVDPESKSVTIALTATTGGKKIFGRAIASAKLA
specific activity (hydration followed at 263 nm), 2 µM substrate, 311 nM enzyme: no activity of the Rv0636 homodimer could be detected in the presence of octenoyl-ACP

— patent US20100143940A1, “(3R)-HYDROXYACYL-ACP DEHYDRATASE ENZYMES USED IN THE BIOSYNTHESIS OF MYCOLIC ACIDS AND USE OF SAME FOR SCREENING ANTIBIOTICS” (priority 2007, published 2010)
